Measured values reported in patent US20100310590A1.
Where a chain is given by its changes, count along the chain named.

B1: SEQ ID NO:4 (protein)
chain: MSWQTYVDEHLMCDIDGQASNSLASAIVGHDGSVWAQSSSFPQFKPQEITGIMKDFEEPGHLAPTGLHLGGIKYMVIQGEAGAVIRGGEGSGGITIKKTGQALVFGIYEEPVTPGQCNMVVERLGDYLIDQGL
B2: SEQ ID NO:6 (protein)
chain: B1 chain with S39A
B3: wild-type Bet v 2 allergen (SEQ ID NO:1) (protein)
chain: B1 chain with G88K, E89K
B4: SEQ ID NO:2 (protein)
chain: B1 chain with S39A, G88K, E89K
B5: SEQ ID NO:3 (protein)
chain: B1 chain with K45T, G88K, E89K

Molecular target: IgEs from a serum pool of patients allergic to birch pollen (RAST 3+ and 4+ to Bet v 2) (human)
Test: REAST inhibition: serum pool pre-incubated with inhibitor, IgE captured on anti-IgE plate, biotinylated Bet v 2 detection

Row | Binder | percent inhibition of Bet v 2 wt binding to IgE at 1.45 ng inhibitor [%]
1 | B1 | 13.4
2 | B2 | 8.8
3 | B3 | 82.6
4 | B4 | 40.4
5 | B5 | 71
